Legend:
Assay in all cases: two-hybrid library CCmax;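 further: natural log of median RNA to DNA barcode read ratio; higher means stronger binding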
[1] = target: T1, P2-AA-1HAA-D; settings: mean of both orientations
T1 chain: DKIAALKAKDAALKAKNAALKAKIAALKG

[2] = target: T2, P2-AA-1HAA-I; settings: mean of both orientations
T2 chain: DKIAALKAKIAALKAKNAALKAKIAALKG

[3] = target: T3, P2-AA-1HAA-K; settings: mean of both orientations
T3 chain: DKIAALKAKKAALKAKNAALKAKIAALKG

[4] = target: T4, P2-AA-1HAA-L; settings: mean of both orientations
T4 chain: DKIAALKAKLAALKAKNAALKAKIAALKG

[5] = target: T5, P2-AA-1HAA-R; settings: mean of both orientations
T5 chain: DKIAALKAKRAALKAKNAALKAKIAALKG

[6] = target: T6, P2-AA-1HAA-S; settings: mean of both orientations
T6 chain: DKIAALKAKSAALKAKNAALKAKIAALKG

[7] = target: T7, P2-AA-1HAA-T; settings: mean of both orientations
T7 chain: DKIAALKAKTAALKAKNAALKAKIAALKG

[8] = target: T8, P2-AA; settings: mean of both orientations
T8 chain: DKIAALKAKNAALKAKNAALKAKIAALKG

[9] = target: T9, Core_NINN-es_KEKK; settings: mean of both orientations
T9 chain: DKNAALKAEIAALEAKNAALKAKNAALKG

[10] = target: T10, Core_NNIN-es_KEEE
T10 chain: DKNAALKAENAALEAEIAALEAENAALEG

[11] = target: T11, Core_NNNN-es_KKKK; settings: mean of both orientations
T11 chain: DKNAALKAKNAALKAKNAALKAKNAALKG

In the case of DEIAALEAEDAALEAENAALEAEIAALEG [P1-AA-1HAA-D], the interaction score [1] is reported as 0.443, the interaction score [2] is reported as 1.89 and the interaction score [3] is reported as 1.56. It also gave an interaction score [4] of 2.16, an interaction score [5] of 1.66 and an interaction score [6] of 1.57. It also gave an interaction score [7] of 1.59 and an interaction score [8] of 2.18.

Binder DENAALEAKIAALKAENAALEAENAALEG [Core_NINN-es_EKEE] has an interaction score [9] of 1.5.

DENAALEAKNAALKAKIAALKAKNAALKG [Core_NNIN-es_EKKK] was tested, and the interaction score [10] was 1.83.

Binder DENAALEAENAALEAENAALEAENAALEG [Core_NNNN-es_EEEE] has an interaction score [11] of 1.53.

— article PMC10397247
